Data as given in PMC7076459, “Biochemical and Molecular Characterization of PvNTD2, a Nucleotidase Highly Expressed in Nodules from Phaseolus vulgaris” (Plants, 2020).

Key:
[1] = molecular target: T1, PvNTD2 (Phaseolus vulgaris, UniProt V7AIP8); assay: phosphate release, inhibition of phosphatase activity; assay type: biochemical; settings: 2 mM UMP substrate (other nucleotides also tested), pH 7, 1 mM MgCl2, 37 °C; reaction product
T1 construct: gene PHAVU_011G182400g; ORF without predicted signal peptide (cleavage predicted between 24 and 25)
T1 sequence (V7AIP8 25-269): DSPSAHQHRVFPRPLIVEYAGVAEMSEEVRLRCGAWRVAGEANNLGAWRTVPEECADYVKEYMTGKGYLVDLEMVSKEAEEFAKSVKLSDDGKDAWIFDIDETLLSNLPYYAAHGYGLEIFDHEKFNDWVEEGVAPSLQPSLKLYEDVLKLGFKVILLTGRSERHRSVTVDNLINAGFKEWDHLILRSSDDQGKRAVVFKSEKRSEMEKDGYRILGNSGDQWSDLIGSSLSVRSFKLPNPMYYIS

[2] = substrate: O=c1[nH]c(=O)c2ncn([C@@H]3O[C@H](COP(=O)(O)O)[C@@H](O)[C@H]3O)c2[nH]1; assay: phosphate release, Hanes-Woolf plot; assay type: biochemical, Phaseolus vulgaris; settings: 50 mM TES-NaOH pH 7, 1 mM MgCl2, 37 °C
Description: (§1) phosphate release, Hanes-Woolf plot on PvNTD2

[3] = substrate: Nc1ncnc2c1ncn2[C@@H]1O[C@H](COP(=O)(O)O)[C@@H](O)[C@H]1O; assay: phosphate release, Hanes-Woolf plot; assay type: biochemical, Phaseolus vulgaris; settings: 50 mM TES-NaOH pH 7, 1 mM MgCl2, 37 °C
Description: as §1

[4] = substrate: O=c1ccn([C@@H]2O[C@H](COP(=O)(O)O)[C@@H](O)[C@H]2O)c(=O)[nH]1; assay: phosphate release, Hanes-Woolf plot; assay type: biochemical, Phaseolus vulgaris; settings: 50 mM TES-NaOH pH 7, 1 mM MgCl2, 37 °C
Description: as §1

[5] = substrate: Cc1cn([C@H]2C[C@H](O)[C@@H](COP(=O)(O)O)O2)c(=O)[nH]c1=O; assay: phosphate release, Hanes-Woolf plot; assay type: biochemical, Phaseolus vulgaris; settings: 50 mM TES-NaOH pH 7, 1 mM MgCl2, 37 °C
Description: as §1

Molecule: Nc1ncnc2c1ncn2[C@@H]1O[C@H](CO)[C@@H](O)[C@H]1O [adenosine]
- % activity at 0.2 mM [1]: The activity of the recombinant protein was strongly inhibited in the presence of adenosine

B1: PvNTD2 (Phaseolus vulgaris) (protein)
chain: T1 sequence (V7AIP8 25-269)
notes: ORF without predicted signal peptide (cleavage predicted between 24 and 25)
- Km [2]: 95 µM
- Vmax [2]: 4.22 µmol/min/mg
- Km [3]: 11 µM
- Vmax [3]: 1.46 µmol/min/mg
- Km [4]: 39 µM
- Vmax [4]: 4 µmol/min/mg
- Km [5]: 63 µM
- Vmax [5]: 4.08 µmol/min/mg
